What is called stoichiometry N is the number of molecules, sites or subunits per partner or assembly.

Experimental findings from paper PMC13425845 are described below.

Assay [1] has as its target human γD-crystallin C18S/C32S/C41S/C78S (human). The experiment in a line: intact protein electrospray mass spectrometry; Bruker Impact II QTOF electrospray mass spectrometer with HPLC; isotopically averaged mass of monomer and dimer samples.
Assay [2] concerns the target human γD-crystallin C18T/C32A/C41A/C78A (human). The assay is described as above.

In assay [1], “human γD-crystallin C18S/C32S/C41S/C78S (natural protein)” gave a stoichiometry N of 2.
The substance “human γD-crystallin C18T/C32A/C41A/C78A (natural protein)” displayed a stoichiometry N in assay [2] of 2.
